Reference: a protein production outcome set (Wang et al. 2014)

Experiment: label from the status in PepcDB records
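Further: failed if final PepcDB status was selected cloned or expressed and not failed if soluble or beyond.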

Sequence | protein production
MTSVLEKRHAPKQRAEAQRALTGEDFVGDEAPGKDLPSRPRLDPAEFIKANMGLVPVLALPEIRFYTAHPGSGLRRLVDPEDDADADDDTPEPQPPYWAYAWAGGAVLARHILNHPKTVAGRRVLDLGAGSGIVGIAAAKAGASEVIAAEIDRNGVAAIGLNAAANGVEITIVHQDITMGSPPAVDLVLAGDVFYGREVALRVIPFLDRCLAAGIEVLVGDPRRHDLPLSRLRLLAEYQVPDFGDAKDAALKPSGVFRFEAETAPALAGAIKPSP | failed
MTSVRGIAPLPSKKSSDRQKRLAMSTFERYLTLWVALCIVVGIGLGHLMPGAFQVIGAAEIAKVNLPVAALIWLMIIPMLVRIDFAALGRVREHWRGIGVTLFINWAVKPFSMAALAWLFVGYLFRPYLPADQINSYIAGLIILAAAPCTAMVFVWSNLTKGEPHFTLSQVALNDTIMVFAFAPIVGLLLGLSAITVPWDTLVLSVVLYIVVPVIIAQGLRRWALASGGEAQLQRLLGIFQPLSLVALLATLVLLFGFQGEQIIRQPLVIALLAVPILIQVYFNAGLAYLLNRLSGEQHCVAGPSALIGASNFFELAVAAAISLFGFESGAALATVVGVLIEVPVMLTVVAIVNRSKRWYEADQRAPVARTPG | failed
MTSYTAAGLGELVQRDGALVNGRIYTDPEIFGLEMERIFSKVWVYVGHESQVANPGDYMTGYLAQQPIILTRDRAGQIHVLFNRCTHRGAKIVNRERGNERLLTCMYHGWAFGHDGELRGIPLKKDFPAEAVEPCKASLARPPRVDAYRGFIFASLNPDVEPLRDYLGAAASGIDEIVDRAPAGTIRLSAGCHRYIYEGNWKLQTDNLGDMYHPVACHSSTVDEDGKQFKRRPGDEGGRAAFLGADGEPIVIQTGVRGFLRGHSSEASLFGANDIVKEETRQRGGIIDEYRSLLIEQHGVEKTDEILKNRRHSMTLFPNLDVLMVQTSVRVVIPLAYNRTEVRIYPVHLDGAPDELNRQIIKFLNITHSAASFIQTDDLEAFKRQQEGLAARSPQWLIVARGQGSEIDEGNGAYFGPRASEVGQRMRHQYWRELMMAE | failed
MTTDQHQEILRTEGLSKFFPGVKALDNVDFSLRRGEIMALLGENGAGKSTLIKALTGVYHADRGTIWLEGQAISPKNTAHAQQLGIGTVYQEVNLLPNMSVADNLFIGREPKRFGLLRRKEMEKRATELMASYGFSLDVREPLNRFSVAMQQIVAICRAIDLSAKVLILDEPTASLDTQEVELLFDLMRQLRDRGVSLIFVTHFLDQVYQVSDRITVLRNGSFVGCRETCELPQIELVKMMLGRELDTHALQRAGRTLLSDKPVAAFKNYGKKGTIAPFDLEVRPGEIVGLAGLLGSGRTETAEVIFGIKPADSGTALIKGKPQNLRSPHQASVLGIGFCPEDRKTDGIIAAASVRENIILALQAQRGWLRPISRKEQQEIAERFIRQLGIRTPSTEQPIEFLSGGNQQKVLLSRWLLTRPQFLILDEPTRGIDVGAHAEIIRLIETLCADGLALLVISSELEELVGYADRVIIMRDRKQVAEIPLAELSVPAIMNAIAA | failed
MTTHITKAPAYWSRDAIWPGIVAVGPMLPGTLAFGMAFGALCAQKNFTLAEVEVMMATVYGGLSQFVAVQAWPDQLTPSTIAALALLTTTVNIRFFLMTASMRPWFGTLPAWQAYPPLLLVTDGGWLAAMRYREHGGANAWFYLGGALVLYLVWLVSAIPGFLLAEQLADPKKFGVDIAMPAFFAALLVPAWKGPRRAIPWLVSGIVALTVHWLIPGYWFIIAGALSGAITAGLMDEPPVATSHAGHSS | failed
MTTLLRNETPRRCAFWRGARGILAFVLALALTIQGVAPAWAFLGLGGFTIKDEVELGRKFDVLIKSRMPLVEDPEVKVYVQDIVARLLEQAPPQPFDFKTNVLLHNSLNAFASPGGFIFVHTGLVMQMDHEAEVAGVLAHELAHATQRHIAGRIEKMQTTSILSMAGALAGAFLGGGSGKGAAMAGSIAAGQSAMLNYSRVDETEADEIGLRYLIAAGFRPEGMVGAFEKIRKKQWAMGTDIPSYLSTHPAVNERINSLSARIAALPADIRSRPNDDARFLRVRTICRARYGDPAVSERLFADAPAGDCLAQLGKAILFSRQNRVAEATAAFDKALQCSPKDQLIWREAGRFHYTKGDKGRAAAMLQRATLMNPDDYMALFFYARLLADSGQPQKSYQYFDEVLRRLPEDAEVHYYYGRVLGASGQPFKAYLHLAYSSLYSNDKHKTESFEEQARAQARTPEEMAELERFAATYQERKAFW | failed
MTTLRTLMAVSLVLNLAACGFKLRGQVSELPFERVYITAPAGLTIGSDLERVISTHTRAKVVNKAEKSEAIIQIVHAIREKRILSLSESGRVREFELVYRVAARLLDAHNAELASLQEIRLTRILPFLDAQELAKAAEEEMLYKDMQKDAVQQILRQVSAVTSAGLEHHHHHH | not failed
MTTTQPEAKDRISSLPVPDATQVPEGVRKLWAKAEANIGFVPNVFRAQAVNGEQFLAWWNYFNLLLNKEGYLTNAERELVAVVVSGVNRCLYCAVSHGAALREFLGDPQKADAVAVNWRHADLTEREQALAAYAEKLTRHPAEVTAADLEPLRAVGLDDHQIMELVQVIGMFNLTNRVSSALGFVPNPEYYRQAR | not failed
MTTTTNKAWRTICKATELVKDSGISALIANSAGEDEQIAIFHIPNSEEKIYAVGNYDPIGQANVLYRGLVGCIDDEPVVSSPLYKQHYSLKTGRCLQEDQTIAVYDIRIENEQVQLFYLEHHHHHH | failed
MTTVIVGAGRIGSSVIELAADANIGVTVIEQEHERAHEFKADENCHVIHDDATERETLHEAEVGNADAIIATTDQDTTNLMVLMLARELGCETLVSVVHAEENIPLFRQLGATIIENPQRLIAEYLFRGTHDPGIQGFMHVGDRDGGAEVFEISVADGAPIIGKTLEQADVAGFLPPSMVVVAVERDGEIIIPRGNTQIETDDLVTVFSKEGIINEVVEPFKPEAKRTGDSDTE | failed
MTTVRTRIAPSPTGDPHVGTAYIALFNLCFARQHGGQFILRIEDTDQLRSTRESEQQIYDALRWLGIEWDEGPDVGGPHGPYRQSERGHIYKKYSDELVEKGHAFTCFCTPERLDAVRAEQMARKETPRYDGHCMHLPKDEVQRRLAAGESHVTRMKVPTEGVCVVPDMLRGDVEIPWDRMDMQVLMKADGLPTYFLANVVDDHLMGITHVLRGEEWLPSAPKLIKLYEYFGWEQPQLCYMPLLRNPDKSKLSKRKNPTSITFYERMGYLPQALLNYLGRMGWSMPDEREKFTLAEMIEHFDLSRVSLGGPIFDLEKLSWLNGQWIREQSVEEFAREVQKWALNPEYLMKIAPHVQGRVENFSQIAPLAGFFFSGGVPLDASLFEHKKLDPTQVRQVLQLVLWKLESLRQWEKERITGCIQAVAEHLQLKLRDVMPLMFPAITGHASSVSVLDAMEILGADLSRYRLRQALELLGGASKKETKEWEKIRDAIPG | failed
MTVAIPDLRVCANLTGKTLLICVGAAKCATSWLHDYLGSRPEVTVSPLKELHFFDSKFPEHALGDADGLALARLSFQLGQAGDAVANLRHRAIFQASLDRAQMIYDDNAYFGHFARLCGPQTRCFCDLTPSYSAIGAEGFAYMKRFCASQDIEVKILFLMRDPVRRFWSQLRHLQQMNPVNDVASKWRHALTAPALLARADYRGIVLALEQVFPSANLLCLFYESLFEGDDAIRRLCRFIGIPFAPAATGQRHNETTVRLPLSDDARDAFRHLLAPQYDFCRERFGRSIPGSWLA | failed
MTVAVIGAHGGIGRRLLPRLNEAGHDPIGVVRSEDQFAAIRDRGAEPRLGDLEGEVASALDGADAVVFTAGAGGSTGWDKTILVDLWGAERAVHACEEKEIDRFVMVSSRGAGDPESRQGPIKPYIVAKHVADRTLQRSSLDETILRPTRLTDAEGTGRVAAYVDTDPDAGDPIPRADVAQAVVQCLADDNTVGHAITLYGGDTPIGEALRPSGLEHHHHHH | failed
MTVAYIAIGSNLASPLEQVNAALKALGDIPESHILTVSSFYRTPPLGPQDQPDYLNAAVALETSLAPEELLNHTQRIELQQGRVRKAERWGPRTLDLDIMLFGNEVINTERLTVPHYDMKNRGFMLWPLFEIAPELVFPDGEMLRQILHTRAFDKLNKW | failed
MTVEQNVLQQSAAQKHQQTFLNQLREITGINDAQILQQALKDSNGNLELAVAFLTAKNAKTPPQEET | not failed
MTVSQDILLTDHFKQWIEIFKKGKVSDGTYRKYLYTLSVLKKHFSTATIKTMNRVKYQEMLNEFAEGHSDSSVKQINVHVRASLENLLDDFIIKNDFTKGLEHHHHHH | failed
